Source: patent publication US7521540B2, “CYR61 compositions and methods” (Munin Corporation, priority 1996, dated 2009)

Tests used:
NIH 3T3 fibroblasts [1] = experiment: Thymidine incorporation (mitogen potentiation), NIH 3T3; assay type: cell-based, mouse
Protocol: More specifically, NIH 3T3 fibroblast cells were plated on 24-well plates at 3×10^4 cells/well and grown in DMEM with 10% fetal bovine serum (Intergen Co., Purchase, N.Y.) for 3-4 days and incubated with medium containing 0.2% FBS for the following 48 hours. The following compounds, at the parenthetically noted final concentrations, were then added to the plated cells in fresh DMEM containing 0.2% fbs and [^3H]-thymidine (1 μCi/ml final concentration; ICN Biomedicals, Inc., Costa Mesa, Calif.): bFGF (15 ng/ml), PDGF-BB (30 ng/ml), and murine Cyr61 (0.5-5 μg/ml). These compounds were added to individual plates according to the following pattern: 1) no supplementation; 2) murine Cyr61; 3) bFGF; 4) murine Cyr61 and bFGF; 5) PDGF-BB; and 6) murine Cyr61 and PDGF. After 18-20 hours of incubation, cells were washed with PBS and fixed with 10% trichloroacetic acid. DNA was dissolved in 0.1 N NaOH and thymidine incorporation was determined. […] Without any supplements, 3T3 cells incorporated approximately 1.8×10^4 cpm of [^3H]-thymidine, in the presence or absence of Cyr61. Cells exposed to bFGF alone incorporated about 1.2×10^5 cpm; cells contacting bFGF and murine Cyr61 incorporated 2×10^5 cpm. Cells receiving PDGF-BB incorporated about 1.2×10^5 cpm; and cells exposed to PDGF-BB and murine Cyr61 incorporated approximately 2.4×10^5 cpm.
(§1) DNA synthesis for HUVE cells and NIH 3T3 fibroblasts was measured by thymidine incorporation as described previously (Kireeva et al., [1996]) with minor modifications. HUVE cells were grown in 24-well plates to a subconfluent state, serum-starved for 24 hours and treated with F12K medium containing 10% fetal bovine serum (FBS), 1 μCi/ml [^3H]-thymidine and 10 ng/ml basic Fibroblast Growth Factor (bFGF) (Gibco-BRL, Inc.) with various concentrations of Cyr61 and Fisp12 as indicated. NIH 3T3 fibroblasts were grown to subconlfluence, serum-starved for 48 hours, and treated with Minimal Essential Medium (MEM) containing 0.5% FBS, 1 μCi/ml [^3H]-thymidine, bFGF and various concentrations of Cyr61 or Fisp12. Thymidine incorporation into the trichloroacetic acid-insoluble fraction was determined after 24 hour incubation. Logarithmically grown mink lung epithelial cells (Mv1lu, CCL64) were treated with various concentrations of TGF-β1 (Gibco-BRL) and 2 μg/ml of Cyr61 or Fisp12 for 18 hours; [^3H]-thymidine was then added to 1 μCi/ml for 2 hours. Thymidine incorporation was determnined as described above.

[2] = system: mink lung epithelial cells (Mv1lu, CCL64); experiment: TGF-β inhibition of DNA synthesis; assay type: cell-based; details: 2 μg/ml, 18 hours
Protocol: as §1

[3] = Heparin binding assay (salt elution from heparin-Sepharose/agarose); details: for NaCl concentration of elution from heparin-Sepharose/agarose: increasing salt concentrations
[4] = system: mink lung epithelial (Mv1Lu) cells; experiment: Fisp12 cell attachment assay, Mv1Lu cells; assay type: cell-based; details: coating 20 μg/ml
Protocol: (§2) The capacity of Fisp12 to affect cell adhesion was also investigated. Fisp12 cell attachment assays were performed essentially as described (Oliver et al., [1989]). 96-well immunological plates were coated for 16 hours at 4° C. with 20 μg/ml Cyr61, Fisp12 or fibronectim (Gibco BRL) in PBS containing 0.1 mg/ml BSA and blocked with 10 mg/ml BSA for 1 hour at room temperature. HUVE cells were plated at 10^4 cells/well in F12K media with 10% FBS (Hyclone Laboratories, Inc., Logan, Utah); NIH 3T3 fibroblasts were plated at 3×10^4 cells/well and Mv1Lu cells were plated at 5×10^4 cells/well in minimal essential medium (MEM) with 10% FBS. After 1 hour incubation cells were fixed, stained with methylene blue and quantified as described (Oliver et al., [1989]). Cell spreading was examined on cells plated on 100 mm polystyrene petri dishes coated with 2.5 ml of a 20 μg/ml solution of Cyr61, Fisp12 or fibronectin. 10^7 cells were plated on each dish and cell spreading was analyzed 90 minutes after plating by microscopy at 100× magnification.

NIH 3T3 fibroblasts [5] = experiment: Fisp12/Cyr61 cell attachment and spreading, NIH 3T3; assay type: cell-based, mouse; details: for cell attachment to coated dishes: coating 20 μg/ml, NIH 3T3 fibroblasts
Protocol: Another embodiment of the invention is directed to the use of Cyr61 to mediate cellular attachment to the extracellular matrix. Induction of cellular adhesion was investigated using murine Cyr61, fibronectin, and bovine serum albumin (BSA). Immunological 96-well plates (Falcon brand) were coated with 50 μl of 0.1% BSA in PBS at 4° C. in the presence of 0-30 μg/ml concentrations of murine Cyr61 or fibronectin. After two hours exposure to the coating solution, non-diluted immune or pre-immune antisera (30 μl/well), or affinity-purified anti-Cyr61 antibodies were added. For some wells, the coating mixture was adjusted to 10 mM DTT or 100 mM HCl. After 16 hours incubation, the coating solution was removed and the well surface was blocked with 1% BSA in phosphate-buffered saline (PBS) for 1 hour at room temperature. HUVE cells were plated in Ham's complete F12K medium [GIBCO-BRL, Inc.; Ham, Proc. Natl. Acacd. Sci. (USA) 53:786 (1965)] at 5×10^3-10^4 cells/well. Cycloheximide was added to 100 μg/ml immediately before plating and monensin was added to 1 μM 14 hours before plating. After a 2-hour incubation at 37° C., the wells were washed with PBS and attached cells were fixed and stained with methylene blue. The attachment efficiency was determined by quantitative dye extraction and measurement of the extract absorbance at 650 nm. Oliver et al., J. Cell. Sci. 92:513-518 (1989).
as §2

Molecule	[3H]-thymidine incorporation with PDGF-BB (NIH 3T3 fibroblasts [1]; PDGF-BB 30 ng/ml plus murine Cyr61 0.5-5 μg/ml)	[3H]-thymidine incorporation with bFGF (NIH 3T3 fibroblasts [1]; bFGF 15 ng/ml plus murine Cyr61 0.5-5 μg/ml)	minimum concentration for enhancement of bFGF- or PDGF-BB-induced thymidine incorporation (NIH 3T3 fibroblasts [1]; either cell type (NIH 3T3 or HUVE)) [µg/mL]	[3H]-thymidine incorporation, no growth factor (NIH 3T3 fibroblasts [1]; presence or absence of Cyr61)	effect on TGF-β inhibition of DNA synthesis [2]	NaCl concentration of elution from heparin-Sepharose/agarose [3]	cell attachment to coated dishes [4]	cell attachment to coated dishes (NIH 3T3 fibroblasts [5])	attachment of NIH 3T3 cells to murine Cyr61-coated surfaces (NIH 3T3 fibroblasts [5]; method of b177)	enhancement of FGF-induced DNA synthesis (NIH 3T3 fibroblasts [1]; NIH 3T3 fibroblasts)	mitogenic activity by itself (NIH 3T3 fibroblasts [1]; any tested assay conditions)	peak elution from heparin agarose ([3]; metabolically labeled cell lysates) [M NaCl]	cell spreading (NIH 3T3 fibroblasts [5]; dishes coated with 20 μg/ml, 90 minutes)
Cyr61: Cysteine-rich ECM signaling protein; murine sequence SEQ ID NO:2, recombinant from Baculovirus-infected Sf9 cells (protein, listed as Mus musculus) MSSSTFRTLAVAVTLLHLTRLALSTCPAACHCPLEAPKCAPGVGLVRDGCGCCKVCAKQLNEDCSKTQPCDHTKGLECNFGASSTALKGICRAQSEGRPCEYNSRIYQNGESFQPNCKHQCTCIDGAVGCIPLCPQELSLPNLGCPNPRLVKVSGQCCEEWVCDEDSIKDSLDDQDDLLGLDASEVELTRNNELIAIGKGSSLKRLPVFGTEPRVLFNPLHAHGQKCIVQTTSWSQCSKSCGTGISTRVTNDNPECRLVKETRICEVRPCGQPVYSSLKKGKKCSKTKKSPEPVRFTYAGCSSVKKYRPKYCGSCVDGRCCTPLQTRTVKMRFRCEDGEMFSKNVMMIQSCKCNYNCPHPNEASFRLYSLFNDIHKFRD	approximately 2.4×10^5 cpm	2×10^5 cpm	0.5 to 1.0	approximately 1.8×10^4 cpm	enhanced the ability of TGF-β to inhibit DNA synthesis	0.8-1.0 M NaCl	promoted the attachment	promoted the attachment	promoted the attachment of NIH 3T3 cells, though less effectively than fibronectin				
Fisp12: Cysteine-rich murine protein, SEQ ID NO:6, mouse ortholog of CTGF (protein, listed as Mus musculus) MLASVAGPISLALVLLALCTRPATGQDCSAQCQCAAEAAPHCPAGVSLVLDGCGCCRVCAKQLGELCTERDPCDPHKGLFCDFGSPANRKIGVCTAKDGAPCVFGGSVYRSGESFQSSCKYQCTCLDGAVGCVPLCSMDVRLPSPDCPFPRRVKLPGKCCKEWVCDEPKDRTAVGPALAAYRLEDTFGPDPTMMRANCLVQTTEWSACSKTCGMGISTRVTNDNTFCRLEKQSRLCMVRPCEADLEENIKKGKKCIRTPKIAKPVKFELSGCTSVKTYRAKFCGVCTDGRCCTPHRTTTLPVEFKCPDGEIMKKNMMFIKTCACHYNCPGDNDIFESLYYRKMYGDMA					enhanced the ability of TGF-β to inhibit DNA synthesis	0.2 to 0.6 M NaCl	promoted the attachment	promoted the attachment		enhance DNA synthesis induced by fibroblast growth factor	did not exhibit any mitogenic activity	0.4	promotes cell spreading
